Consider two molecules from patent publication US20190071501A1 (REYOUNG SUZHOU BIOLOGY SCIENCE AND TECHNOLOGY, published 2019).

Assay [1] deals with T1, recombinant human CTLA-4 (human, UniProt P16410 36-161, limits assumed).
T1 construct: Plate-coated at 0.5 ug/mL in Embodiment 8
T1 sequence (looked up): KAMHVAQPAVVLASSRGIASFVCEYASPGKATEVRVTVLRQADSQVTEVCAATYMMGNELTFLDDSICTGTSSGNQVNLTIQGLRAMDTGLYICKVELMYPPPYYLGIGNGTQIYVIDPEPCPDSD
In words: ELISA: protein coated at 0.5 ug/mL, antibody at 0.5 ug/mL, goat anti-human FAB-HRP, OD450. The method, then: (§1) The binding of recombinant human CD28, recombinant human CTLA-4, recombinant mouse PD-1, recombinant M.fascicularis PD-1 and recombinant human PD-1 protein in recombinant CD28 family to antibodies is tested. Different proteins are stored at 0.5 μg/mL in enveloping buffer at 4° C. overnight. Remove the solution in wells the next day and wash with PBST for twice. Then add 1% BSA, seal at 37° C. for 1 hour, then wash with PBST for twice. Add 0.5 μg/mL antibody samples, incubate for 1 hour, and wash with PBST for three times. Dilute with goat anti-human FAB-HRP at ratio of 1:10000, incubate for 1 hour at 37 C, and wash with PBST for three times. Add TMB for 15 min coloration, stop the reaction with 0.5M H2SO4 and read out the absorbance at 450 nm.

Assay [2] addresses T2, recombinant human CD28 (human, UniProt P10747 19-152, limits assumed).
T2 construct: Plate-coated at 0.5 ug/mL in Embodiment 8
The assay is described as above. The procedure:
as §1

Assay [3] concerns the target T3, mouse pd1 (mouse, UniProt Q02242).
T3 construct: recombinant protein coated on the ELISA plate; also called recombinant mouse PD-1
T3 sequence (receptor, looked up): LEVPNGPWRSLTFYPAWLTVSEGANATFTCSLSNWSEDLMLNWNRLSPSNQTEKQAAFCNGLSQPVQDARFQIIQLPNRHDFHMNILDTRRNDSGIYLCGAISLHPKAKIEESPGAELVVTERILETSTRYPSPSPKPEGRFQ
The description is as above. The method, then:
as §1

The target in assay [4] is Recombinant human PD-1 fusion protein (human). Put plainly: ELISA: recombinant human PD-1 fusion protein coated at 0.5 ug/mL, antibody kept 1 day in monkey serum at 37 C, goat anti-human FAB-HRP, OD450.
Sequence of Recombinant human PD-1 fusion protein (human) (Q15116 25-170): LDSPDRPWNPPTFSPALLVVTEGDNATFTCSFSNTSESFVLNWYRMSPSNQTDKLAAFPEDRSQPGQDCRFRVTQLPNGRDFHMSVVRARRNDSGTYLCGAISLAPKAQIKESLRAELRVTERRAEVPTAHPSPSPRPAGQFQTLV
Assay [5] deals with T4, PD-1 antigen of the Biacore experiment (not given) (UniProt Q15116 25-167, limits assumed).
T4 construct: Embodiment 5 describes capture by goat anti-human IgG on the chip but never names the analyte
T4 sequence (Q15116 25-167 limits assumed): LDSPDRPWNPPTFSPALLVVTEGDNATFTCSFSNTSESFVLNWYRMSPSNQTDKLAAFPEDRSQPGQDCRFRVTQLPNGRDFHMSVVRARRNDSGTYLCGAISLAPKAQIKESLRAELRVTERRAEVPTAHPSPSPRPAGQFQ
Put plainly: SPR (Biacore), antibody captured by goat anti-human IgG on CM5 chip. The text has this: Biacore is used to analyze the affinity and binding kinetics of the antibody expressed in cell line 4. Using standard amine coupling chemistry and the kit provided by Biacore, the goat anti-human IgG is covalently linked to CMS chip by primary amine. Make the antibody flow in the HBS EP buffer at a flow rate of […] and measure the binding. The binding time is 300 seconds, and the dissociation time is 7200 seconds.
For orientation: In SPR one partner is held on a chip, and binding of the other changes the refractive index at the surface.

The target in assay [6] is T5, PD1 on PD1-27 cells (PD1 over-expressed CHO-K1 stable transfected cells) (UniProt Q15116 25-288).
T5 construct: whole, on cells
T5 sequence (Q15116 25-288 limits assumed): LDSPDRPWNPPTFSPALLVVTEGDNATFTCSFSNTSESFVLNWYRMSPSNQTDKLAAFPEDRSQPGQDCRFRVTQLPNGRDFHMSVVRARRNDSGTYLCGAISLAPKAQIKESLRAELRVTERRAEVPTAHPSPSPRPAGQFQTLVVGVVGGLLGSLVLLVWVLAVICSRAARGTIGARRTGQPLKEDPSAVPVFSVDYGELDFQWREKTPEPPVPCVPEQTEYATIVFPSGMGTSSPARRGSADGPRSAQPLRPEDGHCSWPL
In words: direct cell binding on PD1-27 CHO-K1 cells, EU fluorescence (heading 'Cell binding activity'; value printed as 'cell inhibitory activity IC50'); direct cell binding on PD1-27 cells, no competitor. From the text: (§2) Lay PD1-27 (PD1 over-expressed CHO-K1 stable transfected cells) on the cell plate for culture inspection one day ahead of schedule. After closure on the next day, add gradient-diluted antibody, then anti-mouse-EU after washing, then fluorescence enhancement solution after washing, and obtain the readings.

For assay [7], the target named is T6, PD1-His (human, UniProt Q15116 25-167, limits assumed).
T6 construct: also called hPD-1; not shown: His tag
T6 sequence (Q15116 25-167 limits assumed): as the sequence (Q15116 25-167 limits assumed) above
Put plainly: ELISA, PD1-His coated; ELISA, PD1-His on the plate. The procedure:
Lay PD1-His on the plate, add gradient diluted antibody, incubate and wash it, and then add goat anti-mouse-HRP, perform coloration, and draw up the reaction curve by fitting of readings (see FIG. 6 for results) to calculate the EC50 value.
For orientation: ELISA stands for enzyme-linked immunosorbent assay.

In assay [8] the target is T7, PD1-Fc-His (UniProt Q15116 25-167, limits assumed).
T7 construct: not shown: Fc; His tag
T7 sequence (Q15116 25-167 limits assumed): as above
Put plainly: Inhibition ELISA: graded antibody pre-incubated with PD1-Fc-His, added to a plate laid with 'PD1-Fc' (so in the source), anti-His-HRP, OD450. The procedure:
(§3) Incubate the gradient diluted antibody and a certain concentration of PD1-Fc-His in advance, then add the mixture to the plate laid with PD1-Fc. Add anti-His-HRP to the plate after incubating and washing. Then perform coloration. Draw up the reaction curve by fitting of readings (see FIG. 7 for results) to calculate the IC50 value.

In assay [9] the target is Recombinant human PD-1 fusion protein (human). In words: ELISA: recombinant human PD-1 fusion protein coated at 0.5 ug/mL, antibody kept 7 days in monkey serum at 37 C, goat anti-human FAB-HRP, OD450.
Assay [10] shares this target. In words: ELISA: recombinant human PD-1 fusion protein coated at 0.5 ug/mL, antibody kept 0 days in monkey serum at 37 C, goat anti-human FAB-HRP, OD450.
Assay [11] addresses T7, PD1-Fc-His. Put plainly: competition ELISA: antibody pre-incubated with PD1-Fc-His, plate coated with 'PD1-Fc' (competitor (so in the source)), anti-His-HRP; humanized-section antibody; ELISA competition, PD1-Fc-His in solution. The method, then: as §3
Assay [12] addresses Recombinant human PD-1 fusion protein (human). In words: ELISA: recombinant human PD-1 fusion protein coated at 0.5 ug/mL, antibody kept 4 days in monkey serum at 37 C, goat anti-human FAB-HRP, OD450.
In assay [13] the target is T7, PD1-Fc-His. In words: Inhibition ELISA: graded antibody pre-incubated with PD1-Fc-His, added to a plate coated with 'PD1-Fc' (so in the source), anti-His-HRP, OD450. The procedure: (§4) Incubate the gradient diluted antibody and a certain concentration of PD1-Fc-His in advance, then add the mixture to the plate enveloped with PD1-Fc. Add anti-His-HRP to the plate after incubating and washing. Then perform coloration. Draw up the reaction curve by fitting of readings (see FIG. 2 for results) to calculate the IC50 value.

In assay [14] the target is T5, PD1 on PD1-27 cells (PD1 over-expressed …). In words: cell competition on PD1-27 CHO-K1 cells against 'PD1-Fc' (competitor (so in the source)), anti-Human-EU; mouse antibody; cell competition on PD1-27 CHO-K1 cells. From the text:
Lay PD1-27 (PD1 over-expressed CHO-K1 stable transfected cells) on the cell plate for culture inspection one day ahead of schedule. After closure on the next day, add gradient-diluted antibody and PD1-Fc, then anti-Human-EU after washing, and then fluorescence enhancement solution after washing.

The target in assay [15] is T7, PD1-Fc-His. In words: competition ELISA: antibody pre-incubated with PD1-Fc-His, plate coated with 'PD1-Fc' (competitor (so in the source)), anti-His-HRP; mouse antibody; ELISA competition, PD1-Fc-His in solution. The procedure:
as §4

Assay [16] has as its target T5, PD1 on PD1-27 cells (PD1 over-expressed …). In words: cell binding on PD1-27 CHO-K1 cells, anti-mouse-EU fluorescence.
Text: as §2

Assay [17] deals with T6, PD1-His. Put plainly: ELISA, PD1-His coated, goat anti-mouse-HRP. The procedure:
Envelop PD1-His on the plate, add gradient diluted antibody, incubate and wash it, and then add goat anti-mouse-HRP, perform coloration, and draw up the reaction curve by fitting of readings (see FIG. 1 for results) to calculate the EC50 value.

As a reminder, the EC50 (read off the curve) is the concentration giving half of the maximal effect. For orientation: Kd means the equilibrium constant for the complex coming apart. One may read the koff as the first-order rate constant of dissociation. By kon is commonly meant the rate constant with which the complex forms. Usually EC50 stands for the midpoint of the concentration-response curve. A word on the IC50: it is the concentration needed to halve the response being measured.

T2 sequence (P10747 19-152 limits assumed): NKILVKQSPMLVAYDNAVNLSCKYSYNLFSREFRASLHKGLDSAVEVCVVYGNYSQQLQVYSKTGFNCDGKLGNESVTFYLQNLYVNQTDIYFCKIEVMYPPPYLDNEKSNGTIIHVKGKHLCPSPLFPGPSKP

B1: humanized antibody anti-PD-1 (antibody, V domains shown)
VH: EVQLVESGGGLVKPGGSLRLSCAASGFTFSSYTMSWVRQAPGKGLEWVATISNGGSFTYYPDSMKGRFTISRDNSKNTLYLQMSSLRAEDTAVYYCARDSDYYGIFDYWGQGTTVTVSS
VL: DIVMTQSPLSLPVTPGEPASISCRSSKSLLYKDGKTYLNWYLQKPGQSPQLLIYLMSTRASGVPDRFSGSGSGTDFTLKISRVEAEDVGVYYCQQLVEDPFTFGQGTKLEIKR
notes: Human constant regions; also called humanized PD-1 antibody; hup01 (plasmids P3.1GS-hup01-HC / P3.1GS-hup01-LC)
With B1, the binding result in assay [1], in assay [2] and in [3] was “no binding (tested: 0.5 ug/mL)” each time. Besides, the EC50 (read off the curve) in [4], in [9], in [10] and in assay [12] was 0.04 µg/mL in each case. Besides, the Kd in [5] worked out at 0.422 nM. Also, in assay [5], the koff is 1.93e-05 s⁻¹. In [5], this molecule registered an on-rate (kon) of 45700 M⁻¹ s⁻¹. Further, the EC50 in assay [6] was found to be 0.103 µg/mL; in assay [7] it was 0.00609 µg/mL. Also, the “IC50 (read off the curve)” value in assay [8] is about 0.4 µg/mL. Further, the concentration for half-maximal inhibition (IC50) in assay [11] turned out to be 406 nM.

B2: mouse anti-PD-1 (antibody, V domains shown)
VH: DVKLVESGGGLVKPGGSLKLSCAASGFTFSSYTMSWVRQTPEKRLEWVATISNGGSFTYYPDSMKGRFTISRDNAKNTLYLQMSSLKSEDTAMYYCTRDSDYYGIFDYWGQGTTLTVSS
VL: DIVITQDELSNPVTSGESVSISCRSSKSLLYKDGKTYLNWFLQRPGQSPQLLIYLMSTRASGVSDRFSGSGSGTDFTLEISRVKAEDVGVYYCQQLVEDPFTFGSGTKLEIKR
notes: also called mouse anti-PD-1 monoclonal antibody; mouse PD-1 antibody
On to B2, for which the “IC50 (read off the curve)” value in [13] is about 0.004 µg/mL. The IC50 in assay [14] was 0.284 µg/mL; in assay [15], 3.83 nM. Also, the figures for the EC50 in [16] and in assay [17] were 0.0878 µg/mL and 0.0024 µg/mL, respectively.
